Results: patent US20170081400A1 (CEPHALON, published 2017)
Where a chain is given by its changes, count along the chain named.

T1: human TL1A extracellular domain with N-terminal HIS and FLAG tag (human, UniProt O95150 72-251)
T1 construct: whole entry named. ~70 kDa fraction purified by gel filtration
T1 sequence: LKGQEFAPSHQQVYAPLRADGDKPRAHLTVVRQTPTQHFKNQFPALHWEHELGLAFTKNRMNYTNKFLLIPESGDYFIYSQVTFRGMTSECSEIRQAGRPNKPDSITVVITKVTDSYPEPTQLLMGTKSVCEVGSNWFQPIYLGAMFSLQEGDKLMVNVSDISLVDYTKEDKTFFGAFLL

T2: human TL1A extracellular domain with N-terminal HIS and FLAG tag (human) (UniProt O95150)
T2 sequence: T1 sequence

T3: human TL1A extracellular domain with N-terminal HIS and FLAG tag (human, UniProt O95150 72-251)
T3 construct: the whole entry is named; also called TNFSF15
T3 sequence: T1 sequence

B1: 320-184 (antibody, human IgG1, name in Kabat numbering, V domains shown)
VH: QVQLVQSGAEVKKPGASVKVSCKASGYTFTSYDINWVRQAPGQGLEWMGWLNPNSGNTGYAQKFQGRVTMTADRSTSTAYMELSSLRSEDTAVYYCAREVPETAAFEYWGQGTLVTVSS
VL: QSVLTQPPSVSGAPGQRVTISCTSSSSDIGAGLGVHWYQQLPGTAPKLLIEGYYNRPSGVPDRFSGSKSGTSASLTITGLAPEDEGDYYCQSYDGTLSALFGGGTKLTVLG
notes: human IgG1, lambda
B2: 320-185 (antibody, human IgG1, name in Kabat numbering, V domains shown)
VH: B1 VH
VL: B1 VL with A81S
notes: human IgG1, lambda
B3: 320-186 (antibody, human IgG1, name in Kabat numbering, V domains shown)
VH: B1 VH
VL: B1 VL with A81Q
notes: human IgG1, lambda
B4: 320-187 (antibody, human IgG1, name in Kabat numbering, V domains shown)
VH: B1 VH
VL: B1 VL with A81D
notes: human IgG1, lambda
B5: 320-188 (antibody, human IgG1, name in Kabat numbering, V domains shown)
VH: B1 VH
VL: B1 VL with A81H
notes: human IgG1, lambda
B6: 320-189 (antibody, human IgG1, name in Kabat numbering, V domains shown)
VH: B1 VH
VL: B1 VL with A81K
notes: human IgG1, lambda
B7: 320-190 (antibody, human IgG1, name in Kabat numbering, V domains shown)
VH: B1 VH
VL: B1 VL with A81W
notes: human IgG1, lambda
B8: 320-191 (antibody, human IgG1, name in Kabat numbering, V domains shown)
VH: B1 VH
VL: B1 VL with A81Y
notes: human IgG1, lambda
B9: 320-583 (antibody, human IgG1, name in Kabat numbering, V domains shown)
VH: B1 VH
VL: B1 VL with G32A, A81L, Y93W
notes: full-length human IgG1, lambda
B10: 320-584 (antibody, human IgG1, name in Kabat numbering, V domains shown)
VH: B1 VH
VL: B1 VL with L33S, A81L, Y93W
notes: as for B9
B11: 320-585 (antibody, human IgG1, name in Kabat numbering, V domains shown)
VH: B1 VH
VL: B1 VL with L33Q, A81L, Y93W
notes: as for B9
B12: 320-586 (antibody, human IgG1, name in Kabat numbering, V domains shown)
VH: B1 VH
VL: B1 VL with H36L, A81L, Y93W
notes: as for B9
B13: 320-588 (antibody, human IgG1, name in Kabat numbering, V domains shown)
VH: B1 VH with N57Y
VL: B1 VL with G32A, A81L
notes: as for B9
B14: 320-589 (antibody, human IgG1, name in Kabat numbering, V domains shown)
VH: B1 VH with N57Y
VL: B1 VL with L33S, A81L
notes: as for B9
B15: 320-590 (antibody, human IgG1, name in Kabat numbering, V domains shown)
VH: B1 VH with N57Y
VL: B1 VL with L33Q, A81L
notes: as for B9
B16: 320-591 (antibody, human IgG1, V domains shown)
VH: B1 VH with N57Y
VL: B1 VL with H36L, A81L
notes: as for B9
B17: 320-592 (antibody, human IgG1, name in Kabat numbering, V domains shown)
VH: B1 VH with N57Y
VL: B1 VL with G32A, A81L, Y93W
notes: as for B9
B18: 320-593 (antibody, human IgG1, name in Kabat numbering, V domains shown)
VH: B1 VH with N57Y
VL: B1 VL with L33S, A81L, Y93W
notes: as for B9
B19: 320-594 (antibody, human IgG1, name in Kabat numbering, V domains shown)
VH: B1 VH with N57Y
VL: B1 VL with L33Q, A81L, Y93W
notes: as for B9
B20: 320-595 (antibody, human IgG1, name in Kabat numbering, V domains shown)
VH: B1 VH with N57Y
VL: B1 VL with H36L, A81L, Y93W
notes: as for B9

What was measured:
[1] = target: T1, human TL1A extracellular domain with …; experiment: SPR run 1; purified antibody on Protein A; TL1A 10 ug/mL; timepoint 59
From the text: (§1) 1.5. Antibody expression and antigen binding as determined by SPR. Using a CM5 sensor chip (GE Healthcare) Protein A (Pierce) was coupled to the chip surface using an amine coupling kit (GE Healthcare). Protein A was coupled on flow cell 1 and 2 (or alternatively 3 and 4) using a BIACORE® T200. […] The amount of supernatant or purified protein (as well as the concentration) injected during the capture stage varied between runs and is specified in the header of the Tables 3-11. At the end of injection of the supernatant or purified antibody the change in response units was measured. This value was reported as Capture Level in Tables 3-11. […] The response units were measured prior to the end of the dissociation phase. […] The sensorgrams were double referenced (flow cell 2 is subtracted from flow cell 1 and a buffer blank). As there were a large number of antibody variants to screen, these were screened across different runs (Tables 3-11). […] A summary of the conditions used in each run is below:
(§2) 2.1. […] In some experiment the antibodies were purified using Protein A chromatography (See 1.4) and purified antibodies were used in BIACORE® (GE Healthcare) experiments.

[2] = target: T1, human TL1A extracellular domain with …; experiment: SPR run 1; purified antibody on Protein A; TL1A 10 ug/mL; timepoint 590
From the text: as §1, §2

[3] = target: T2, human TL1A extracellular domain with N-terminal HIS and FLAG tag (human); experiment: cell-based or functional assay
[4] = target: T3, human TL1A extracellular domain with …; experiment: SPR Run 8, antibody on Protein A, TL1A 5 ug/mL, timepoint 590
From the text: as §1, §2

[5] = target: T3, human TL1A extracellular domain with …; experiment: SPR Run 8, antibody on Protein A, TL1A 5 ug/mL, timepoint 44
From the text: as §1, §2

[6] = target: T3, human TL1A extracellular domain with …; experiment: cell-based or functional assay

Binder	TL1A Binding Level (Early) [1] [RU]	TL1A Binding Level (Late) [2] [RU]	Antibody IC50, TL1A induced caspase potency assay in TF-1 cells [3] [µg/mL]	Fold improvement over 320-179, TL1A induced caspase potency assay in TF-1 cells [3] [fold]	TL1A Binding Level (Late) [4] [RU]	TL1A Binding Level (Early) [5] [RU]	Antibody IC50, TL1A induced caspase potency assay in TF-1 cells [6] [ng/mL]	Fold improvement over 320-179, TL1A induced caspase potency assay in TF-1 cells [6] [fold]
B1	141	118	0.01	3				
B2	137	114	0.02	2				
B3	136	113	0.03	1				
B4	134	112	0.02	2				
B5	136	113	0.01	4				
B6	130	107	0.11	0				
B7	136	113	0.02	2				
B8	140	117	0.02	2				
B9					103	108	3	27
B10					98	103	8	10
B11					109	116	3	13
B12					103	108	2	25
B13					123	128	4	5
B14					109	120	20	1
B15					121	130	6	3
B16					124	132	2	10
B17					129	128	3	7
B18					124	126	4	15
B19					132	134	5	12
B20					128	129	3	20
